Data published in patent US20060210984A1.
Blank lines part the entries; values can stand above or below the substance they belong to.

How the values were obtained:
IL-10 (human) [1] = biological target: IL-10 (human) (UniProt P22301); assay: sandwich microarray in flow cell, chemiluminescence, cytokine 1 ng/ml; AVG of Chips 1-5
IL-10 (human) [2] = biological target: IL-10 (human) (UniProt P22301); assay: sandwich microarray in flow cell, chemiluminescence, cytokine 1 ng/ml; Chip 5
IL-10 (human) [3] = biological target: IL-10 (human) (UniProt P22301); assay: sandwich microarray in flow cell, chemiluminescence, cytokine 1 ng/ml; Chip 1
IL-10 (human) [4] = biological target: IL-10 (human) (UniProt P22301); assay: sandwich microarray in flow cell, chemiluminescence, cytokine 1 ng/ml, divided by chip-specific PNA calibration factor; Chip 5
IL-10 (human) [5] = biological target: IL-10 (human) (UniProt P22301); assay: sandwich microarray in flow cell, chemiluminescence, cytokine 1 ng/ml; Chip 3
IL-10 (human) [6] = biological target: IL-10 (human) (UniProt P22301); assay: sandwich microarray in flow cell, chemiluminescence, cytokine 1 ng/ml, divided by chip-specific PNA calibration factor; Chip 1
IL-10 (human) [7] = biological target: IL-10 (human) (UniProt P22301); assay: sandwich microarray in flow cell, chemiluminescence, cytokine 1 ng/ml, divided by chip-specific PNA calibration factor; Chip 3
IL-10 (human) [8] = biological target: IL-10 (human) (UniProt P22301); assay: sandwich microarray in flow cell, chemiluminescence, cytokine 1 ng/ml; Chip 4
IL-10 (human) [9] = biological target: IL-10 (human) (UniProt P22301); assay: sandwich microarray in flow cell, chemiluminescence, cytokine 1 ng/ml, divided by chip-specific PNA calibration factor; AVG of Chips 1-5
IL-10 (human) [10] = biological target: IL-10 (human) (UniProt P22301); assay: sandwich microarray in flow cell, chemiluminescence, cytokine 1 ng/ml; Chip 2
IL-10 (human) [11] = biological target: IL-10 (human) (UniProt P22301); assay: sandwich microarray in flow cell, chemiluminescence, cytokine 1 ng/ml, divided by chip-specific PNA calibration factor; Chip 4
IL-10 (human) [12] = biological target: IL-10 (human) (UniProt P22301); assay: sandwich microarray in flow cell, chemiluminescence, cytokine 1 ng/ml, divided by chip-specific PNA calibration factor; Chip 2
IL-8 (human) [13] = biological target: IL-8 (human) (UniProt P10145); assay: sandwich microarray in flow cell, chemiluminescence, cytokine 1 ng/ml; AVG of Chips 1-5
Sequence of UniProt P10145 (P10145 28-99 limits assumed): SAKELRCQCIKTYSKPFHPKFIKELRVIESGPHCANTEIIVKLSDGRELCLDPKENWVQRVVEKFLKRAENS

IL-8 (human) [14] = biological target: IL-8 (human) (UniProt P10145); assay: sandwich microarray in flow cell, chemiluminescence, cytokine 1 ng/ml; Chip 5
IL-8 (human) [15] = biological target: IL-8 (human) (UniProt P10145); assay: sandwich microarray in flow cell, chemiluminescence, cytokine 1 ng/ml; Chip 1
IL-8 (human) [16] = biological target: IL-8 (human) (UniProt P10145); assay: sandwich microarray in flow cell, chemiluminescence, cytokine 1 ng/ml, divided by chip-specific PNA calibration factor; Chip 5
IL-8 (human) [17] = biological target: IL-8 (human) (UniProt P10145); assay: sandwich microarray in flow cell, chemiluminescence, cytokine 1 ng/ml; Chip 3
IL-8 (human) [18] = biological target: IL-8 (human) (UniProt P10145); assay: sandwich microarray in flow cell, chemiluminescence, cytokine 1 ng/ml, divided by chip-specific PNA calibration factor; Chip 1
IL-8 (human) [19] = biological target: IL-8 (human) (UniProt P10145); assay: sandwich microarray in flow cell, chemiluminescence, cytokine 1 ng/ml, divided by chip-specific PNA calibration factor; Chip 3
IL-8 (human) [20] = biological target: IL-8 (human) (UniProt P10145); assay: sandwich microarray in flow cell, chemiluminescence, cytokine 1 ng/ml; Chip 4
IL-8 (human) [21] = biological target: IL-8 (human) (UniProt P10145); assay: sandwich microarray in flow cell, chemiluminescence, cytokine 1 ng/ml, divided by chip-specific PNA calibration factor; AVG of Chips 1-5
IL-8 (human) [22] = biological target: IL-8 (human) (UniProt P10145); assay: sandwich microarray in flow cell, chemiluminescence, cytokine 1 ng/ml; Chip 2
IL-8 (human) [23] = biological target: IL-8 (human) (UniProt P10145); assay: sandwich microarray in flow cell, chemiluminescence, cytokine 1 ng/ml, divided by chip-specific PNA calibration factor; Chip 4
IL-8 (human) [24] = biological target: IL-8 (human) (UniProt P10145); assay: sandwich microarray in flow cell, chemiluminescence, cytokine 1 ng/ml, divided by chip-specific PNA calibration factor; Chip 2
IL-12p40 (human) [25] = biological target: IL-12p40 (human) (UniProt P29460); assay: sandwich microarray in flow cell, chemiluminescence, cytokine 1 ng/ml; AVG of Chips 1-5
Sequence of UniProt P29460 (P29460 23-328 limits assumed): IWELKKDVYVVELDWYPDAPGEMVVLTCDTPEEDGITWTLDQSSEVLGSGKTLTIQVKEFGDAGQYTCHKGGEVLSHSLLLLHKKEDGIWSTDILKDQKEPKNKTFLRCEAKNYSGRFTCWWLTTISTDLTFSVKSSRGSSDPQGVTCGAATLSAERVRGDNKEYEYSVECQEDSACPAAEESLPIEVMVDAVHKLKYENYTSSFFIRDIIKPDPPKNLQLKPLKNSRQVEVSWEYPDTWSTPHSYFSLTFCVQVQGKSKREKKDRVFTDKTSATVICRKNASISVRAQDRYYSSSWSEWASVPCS

IL-12p40 (human) [26] = biological target: IL-12p40 (human) (UniProt P29460); assay: sandwich microarray in flow cell, chemiluminescence, cytokine 1 ng/ml; Chip 5
IL-12p40 (human) [27] = biological target: IL-12p40 (human) (UniProt P29460); assay: sandwich microarray in flow cell, chemiluminescence, cytokine 1 ng/ml; Chip 1
IL-12p40 (human) [28] = biological target: IL-12p40 (human) (UniProt P29460); assay: sandwich microarray in flow cell, chemiluminescence, cytokine 1 ng/ml, divided by chip-specific PNA calibration factor; Chip 5
IL-12p40 (human) [29] = biological target: IL-12p40 (human) (UniProt P29460); assay: sandwich microarray in flow cell, chemiluminescence, cytokine 1 ng/ml; Chip 3
IL-12p40 (human) [30] = biological target: IL-12p40 (human) (UniProt P29460); assay: sandwich microarray in flow cell, chemiluminescence, cytokine 1 ng/ml, divided by chip-specific PNA calibration factor; Chip 1
IL-12p40 (human) [31] = biological target: IL-12p40 (human) (UniProt P29460); assay: sandwich microarray in flow cell, chemiluminescence, cytokine 1 ng/ml, divided by chip-specific PNA calibration factor; Chip 3
IL-12p40 (human) [32] = biological target: IL-12p40 (human) (UniProt P29460); assay: sandwich microarray in flow cell, chemiluminescence, cytokine 1 ng/ml; Chip 4
IL-12p40 (human) [33] = biological target: IL-12p40 (human) (UniProt P29460); assay: sandwich microarray in flow cell, chemiluminescence, cytokine 1 ng/ml, divided by chip-specific PNA calibration factor; AVG of Chips 1-5
IL-12p40 (human) [34] = biological target: IL-12p40 (human) (UniProt P29460); assay: sandwich microarray in flow cell, chemiluminescence, cytokine 1 ng/ml; Chip 2
IL-12p40 (human) [35] = biological target: IL-12p40 (human) (UniProt P29460); assay: sandwich microarray in flow cell, chemiluminescence, cytokine 1 ng/ml, divided by chip-specific PNA calibration factor; Chip 4
IL-12p40 (human) [36] = biological target: IL-12p40 (human) (UniProt P29460); assay: sandwich microarray in flow cell, chemiluminescence, cytokine 1 ng/ml, divided by chip-specific PNA calibration factor; Chip 2

Sequence of UniProt P22301 (P22301 19-178 limits assumed): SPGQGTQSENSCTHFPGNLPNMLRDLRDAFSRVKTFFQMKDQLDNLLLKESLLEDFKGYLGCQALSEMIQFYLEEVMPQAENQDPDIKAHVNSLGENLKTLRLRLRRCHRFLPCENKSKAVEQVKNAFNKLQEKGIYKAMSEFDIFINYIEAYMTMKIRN

chemiluminescent spot intensity (Un-Calibrated Data) (IL-10 (human) [1]): 691 | chemiluminescent spot intensity (Un-Calibrated Data) (IL-10 (human) [2]): 414 | chemiluminescent spot intensity (Un-Calibrated Data) (IL-10 (human) [3]): 788 | chemiluminescent spot intensity (Calibrated Data) (IL-10 (human) [4]): 1280 | chemiluminescent spot intensity (Un-Calibrated Data) (IL-10 (human) [5]): 1360 | chemiluminescent spot intensity (Calibrated Data) (IL-10 (human) [6]): 1320 | chemiluminescent spot intensity (Calibrated Data) (IL-10 (human) [7]): 1360 | chemiluminescent spot intensity (Un-Calibrated Data) (IL-10 (human) [8]): 508 | chemiluminescent spot intensity (Calibrated Data) (IL-10 (human) [9]): 1280 | chemiluminescent spot intensity (Un-Calibrated Data) (IL-10 (human) [10]): 389 | chemiluminescent spot intensity (Calibrated Data) (IL-10 (human) [11]): 1120 | chemiluminescent spot intensity (Calibrated Data) (IL-10 (human) [12]): 1330
Substance: MAb IL-10 (monoclonal capture antibody of the anti-human IL-10 OptEIA matched pair, BD Biosciences-Pharmingen)

chemiluminescent spot intensity (Un-Calibrated Data) (IL-8 (human) [13]): 1580 | chemiluminescent spot intensity (Un-Calibrated Data) (IL-8 (human) [14]): 905 | chemiluminescent spot intensity (Un-Calibrated Data) (IL-8 (human) [15]): 1760 | chemiluminescent spot intensity (Calibrated Data) (IL-8 (human) [16]): 2790 | chemiluminescent spot intensity (Un-Calibrated Data) (IL-8 (human) [17]): 3100 | chemiluminescent spot intensity (Calibrated Data) (IL-8 (human) [18]): 2960 | chemiluminescent spot intensity (Calibrated Data) (IL-8 (human) [19]): 3100 | chemiluminescent spot intensity (Un-Calibrated Data) (IL-8 (human) [20]): 1320 | chemiluminescent spot intensity (Calibrated Data) (IL-8 (human) [21]): 2900 | chemiluminescent spot intensity (Un-Calibrated Data) (IL-8 (human) [22]): 804 | chemiluminescent spot intensity (Calibrated Data) (IL-8 (human) [23]): 2900 | chemiluminescent spot intensity (Calibrated Data) (IL-8 (human) [24]): 2750
Substance: MAb IL-8 (monoclonal capture antibody of the anti-human IL-8 OptEIA matched pair, BD Biosciences-Pharmingen)

chemiluminescent spot intensity (Un-Calibrated Data) (IL-12p40 (human) [25]): 156 | chemiluminescent spot intensity (Un-Calibrated Data) (IL-12p40 (human) [26]): 87 | chemiluminescent spot intensity (Un-Calibrated Data) (IL-12p40 (human) [27]): 179 | chemiluminescent spot intensity (Calibrated Data) (IL-12p40 (human) [28]): 268 | chemiluminescent spot intensity (Un-Calibrated Data) (IL-12p40 (human) [29]): 312 | chemiluminescent spot intensity (Calibrated Data) (IL-12p40 (human) [30]): 300 | chemiluminescent spot intensity (Calibrated Data) (IL-12p40 (human) [31]): 312 | chemiluminescent spot intensity (Un-Calibrated Data) (IL-12p40 (human) [32]): 125 | chemiluminescent spot intensity (Calibrated Data) (IL-12p40 (human) [33]): 285 | chemiluminescent spot intensity (Un-Calibrated Data) (IL-12p40 (human) [34]): 79 | chemiluminescent spot intensity (Calibrated Data) (IL-12p40 (human) [35]): 275 | chemiluminescent spot intensity (Calibrated Data) (IL-12p40 (human) [36]): 270
Substance: MAb IL-12p40 (monoclonal capture antibody of the anti-human IL-12p40 OptEIA matched pair, BD Biosciences-Pharmingen)
